These results are taken from PMC10538664.

The target in the test is prototype SARS-CoV-2 tandem RBD homotrimer (PPP) (SARS-CoV-2) (UniProt P0DTC2). The test can be described thus: SPR. Background: In SPR one partner is held on a chip, and binding of the other changes the refractive index at the surface.
What is called Kd is the free concentration of one partner at which half of the binding sites on the other are occupied at equilibrium, for simple one-to-one binding. Take S309: the Kd was found to be 0.4 nM. Substance REGN10933 yielded a Kd of 5.4 nM. Substance CR3022 showed a Kd of 80.6 nM. Substance C022 came in with a Kd of 1.8 nM. Against the preceding substance, the Kd is about 45-fold lower.

CV07-270 registered a Kd of 11.7 nM.
